For one protein, Phosphorylation by MLSK-1 (% of max.) results are on record in patent US20030162277.

For series [1], the target named is T1, Ca-/calmodulin-dependent PK substrate peptide KKALRRQETVDAL
T1 chain: KKALRRQETVDAL

For series [2], the target named is T2, Ca-/calmodulin-dependent PK substrate peptide PLARTLSVAGLPGK
T2 chain: PLARTLSVAGLPGK

The target of series [3] is T3, S6 kinase substrate peptide LSSLRASTSKSGGQK
T3 chain: LSSLRASTSKSGGQK

Series [4] addresses T4, abl tyrosine kinase substrate peptide EAIYAAPFAKKK
T4 chain: EAIYAAPFAKKK

Series [5] has as its target T5, c-src tyrosine kinase substrate peptide YIYGSFK.
T5 chain: YIYGSFK

Series [6] deals with T6, cAMP-dependent protein kinase substrate peptide LRRASLG.
T6 chain: LRRASLG

In series [7] the target is T7, cGMP-dependent protein kinase substrate peptide RKISASEFDRPLR
T7 chain: RKISASEFDRPLR

The target of series [8] is T8, casein kinase I substrate peptide RRKDLHDDEEDEAMSITA
T8 chain: RRKDLHDDEEDEAMSITA

The target of series [9] is T9, casein kinase II substrate peptide RRRDDDSDDD
T9 chain: RRRDDDSDDD

Series [10] concerns the target T10, cdc2-kinase substrate peptide Ac-SPGRRRRK
T10 chain: SPGRRRRK

The target in series [11] is T11, csk tyrosine kinase substrate peptide KKKKEEIYFFF
T11 chain: KKKKEEIYFFF

The target of series [12] is T12, insulin receptor tyrosine kinase substrate peptide KKKLPATGDYMNMSPVGD
T12 chain: KKKLPATGDYMNMSPVGD

The target in series [13] is T13, myosin light chain kinase substrate peptide KKRPQRATSNVFS
T13 chain: KKRPQRATSNVFS

Series [14] has as its target T14, p34 cdc-kinase substrate peptide PKTPKKAKKL
T14 chain: PKTPKKAKKL

The target in series [15] is T15, p42/p44 MAP kinase substrate peptide APRTPGGRR
T15 chain: APRTPGGRR

In series [16] the target is T16, p42/p44 MAP kinase substrate peptide EAAEAEPAEPSSPAAEAEGA
T16 chain: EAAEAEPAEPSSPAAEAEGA

For series [17], the target named is T17, p42/p44 MAP kinase substrate peptide LMECRNSPVAKT
T17 chain: LMECRNSPVAKT

The target of series [18] is T18, protein kinase C substrate peptide KKRFSFKKSFKLSGFSFK
T18 chain: KKRFSFKKSFKLSGFSFK

Series [19] has as its target T19, protein kinase C substrate peptide QKRPSQRSK
T19 chain: QKRPSQRSK

In series [20] the target is T20, raf-1 kinase substrate peptide SGQLIDSMANSFVGTRS
T20 chain: SGQLIDSMANSFVGTRS

B1: Murine Lymph node Stromal cell Kinase 1 (MLSK-1) (protein)
chain: MESVALLQRPSQAPSASALASESARPLADGLIKSPKPLMKKQAVKRHHHKHNLRHRYEFLETLGKGTYGKVKKARESSGRLVAIKSIRKDKIKDEQDLLHIRREIEIMSSLNHPHIIAIHEVFENSSKIVIVMEYASRGDLYDYISERPRLSERDARHFFRQIVSALHYCHQNGIVHRDLKLENILLDANGNIKIADFGLSNLYHKGKFLQTFCGSPLYASPEIVNGKPYVGPEVDSWSLGVLLYILVHGTMPFDGQDHKTLVKQISNGAYREPPKPSDACGLIRWLLMVNPTRRATLEDVASHWWVNWGYTTGVGEQEALREGGHPSGDFGRASMADWLRRSSRPLLENGAKVCSFFKQHVPGGGSTVPGLERQHSLKKSRKENDMAQNLQGDPAEDTSSRPGKSSLKLPKGILKKKSSTSSGEVQEDPQELRPVPDTPGQPVPAVSLLPRKGILKKSRQRESGYYSSPEPSESGELLDASDVFVSGDPVEQKSPQASGLLLHRKGILKLNGKFSRTALEGTTPSTFGSLDQLASSHPAARPSRPSGAVSEDSILSSESFDQLDLPERLPETPLRGCVSVDNLRGLEQPPSEGLKRWWQESLGDSCFSLTDCQEVTAAYRQALGICSKLS
On to B1, for which the Phosphorylation by MLSK-1 (% of max.) in [1] is 20.9 % of max; in series [2], 10.3 % of max; in series [3], 66.6 % of max; in series [4], 69.3 % of max; in series [5] it was 66.6 % of max; in [6] it was 65.9 % of max. Besides, the Phosphorylation by MLSK-1 (% of max.) in series [7] is 62.2 % of max; in [8] it was 14.1 % of max; in series [9], 17.6 % of max; in [10] it was 94.8 % of max; in [11], 82.1 % of max; in [12], 33.7 % of max. The Phosphorylation by MLSK-1 (% of max.) was 72 % of max in [13]; 82 % of max in [14]; 88.6 % of max in series [15]; 0 % of max in series [16]; 3.8 % of max in series [17]; 100 % of max in [18]. Further, the Phosphorylation by MLSK-1 (% of max.) was 75 % of max in series [19] and 43.1 % of max in series [20].
